Test results from PMC12908882 (Molecular cancer therapeutics, 2026).
Values belong to the binder of their own block, whether it stands above or below them.

Assays:
[1] = target: Human L1CAM expressed on transfected HEK293T cells (HEK293T-L1CAM cells) (Homo sapiens, UniProt P32004); assay: flow cytometry on cells
[2] = target: Human L1CAM Ig-like domains, residues 21-605, C-terminal 6x His tag (Homo sapiens, UniProt P32004); assay: BLI
[3] = target: Extracellular domain of human L1CAM fused to a poly-histidine tag (L1CAM-His) (Homo sapiens, UniProt P32004); assay: BLI
Sequence of Extracellular domain of human L1CAM fused to a poly-histidine tag (L1CAM-His) (P32004 20-1120): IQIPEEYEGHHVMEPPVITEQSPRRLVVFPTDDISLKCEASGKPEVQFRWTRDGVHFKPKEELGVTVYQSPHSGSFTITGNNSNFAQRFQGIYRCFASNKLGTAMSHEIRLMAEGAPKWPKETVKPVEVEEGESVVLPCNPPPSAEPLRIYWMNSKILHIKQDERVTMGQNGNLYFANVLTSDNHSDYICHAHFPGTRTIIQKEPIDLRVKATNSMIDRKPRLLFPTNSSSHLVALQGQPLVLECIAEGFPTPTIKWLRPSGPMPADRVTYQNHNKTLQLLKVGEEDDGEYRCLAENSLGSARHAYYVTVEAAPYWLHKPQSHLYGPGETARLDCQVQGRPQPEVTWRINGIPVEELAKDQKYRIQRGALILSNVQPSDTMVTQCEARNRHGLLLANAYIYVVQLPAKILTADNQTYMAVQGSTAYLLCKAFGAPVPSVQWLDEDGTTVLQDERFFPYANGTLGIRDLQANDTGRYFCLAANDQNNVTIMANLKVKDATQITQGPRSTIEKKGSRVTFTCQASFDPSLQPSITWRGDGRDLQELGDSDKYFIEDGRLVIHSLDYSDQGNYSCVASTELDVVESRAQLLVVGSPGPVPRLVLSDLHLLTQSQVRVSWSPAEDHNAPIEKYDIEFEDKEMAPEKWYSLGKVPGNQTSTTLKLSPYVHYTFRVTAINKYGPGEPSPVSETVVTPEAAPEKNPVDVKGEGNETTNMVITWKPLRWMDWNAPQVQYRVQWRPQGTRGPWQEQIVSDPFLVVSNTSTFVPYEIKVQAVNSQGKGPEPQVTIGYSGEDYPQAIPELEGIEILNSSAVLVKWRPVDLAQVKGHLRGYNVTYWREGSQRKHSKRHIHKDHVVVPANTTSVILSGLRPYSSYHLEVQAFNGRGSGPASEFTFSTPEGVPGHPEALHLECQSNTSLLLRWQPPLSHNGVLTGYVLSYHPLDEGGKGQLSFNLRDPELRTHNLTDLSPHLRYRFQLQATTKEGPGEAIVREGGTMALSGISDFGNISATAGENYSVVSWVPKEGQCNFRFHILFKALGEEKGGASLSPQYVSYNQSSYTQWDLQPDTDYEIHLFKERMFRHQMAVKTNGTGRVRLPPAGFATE

[4] = target: His-tagged, monomeric mouse L1CAM protein (Mus musculus, UniProt P11627); assay: BLI
Sequence of His-tagged, monomeric mouse L1CAM protein (P11627 whole entry, looked up, the tested form may be a part): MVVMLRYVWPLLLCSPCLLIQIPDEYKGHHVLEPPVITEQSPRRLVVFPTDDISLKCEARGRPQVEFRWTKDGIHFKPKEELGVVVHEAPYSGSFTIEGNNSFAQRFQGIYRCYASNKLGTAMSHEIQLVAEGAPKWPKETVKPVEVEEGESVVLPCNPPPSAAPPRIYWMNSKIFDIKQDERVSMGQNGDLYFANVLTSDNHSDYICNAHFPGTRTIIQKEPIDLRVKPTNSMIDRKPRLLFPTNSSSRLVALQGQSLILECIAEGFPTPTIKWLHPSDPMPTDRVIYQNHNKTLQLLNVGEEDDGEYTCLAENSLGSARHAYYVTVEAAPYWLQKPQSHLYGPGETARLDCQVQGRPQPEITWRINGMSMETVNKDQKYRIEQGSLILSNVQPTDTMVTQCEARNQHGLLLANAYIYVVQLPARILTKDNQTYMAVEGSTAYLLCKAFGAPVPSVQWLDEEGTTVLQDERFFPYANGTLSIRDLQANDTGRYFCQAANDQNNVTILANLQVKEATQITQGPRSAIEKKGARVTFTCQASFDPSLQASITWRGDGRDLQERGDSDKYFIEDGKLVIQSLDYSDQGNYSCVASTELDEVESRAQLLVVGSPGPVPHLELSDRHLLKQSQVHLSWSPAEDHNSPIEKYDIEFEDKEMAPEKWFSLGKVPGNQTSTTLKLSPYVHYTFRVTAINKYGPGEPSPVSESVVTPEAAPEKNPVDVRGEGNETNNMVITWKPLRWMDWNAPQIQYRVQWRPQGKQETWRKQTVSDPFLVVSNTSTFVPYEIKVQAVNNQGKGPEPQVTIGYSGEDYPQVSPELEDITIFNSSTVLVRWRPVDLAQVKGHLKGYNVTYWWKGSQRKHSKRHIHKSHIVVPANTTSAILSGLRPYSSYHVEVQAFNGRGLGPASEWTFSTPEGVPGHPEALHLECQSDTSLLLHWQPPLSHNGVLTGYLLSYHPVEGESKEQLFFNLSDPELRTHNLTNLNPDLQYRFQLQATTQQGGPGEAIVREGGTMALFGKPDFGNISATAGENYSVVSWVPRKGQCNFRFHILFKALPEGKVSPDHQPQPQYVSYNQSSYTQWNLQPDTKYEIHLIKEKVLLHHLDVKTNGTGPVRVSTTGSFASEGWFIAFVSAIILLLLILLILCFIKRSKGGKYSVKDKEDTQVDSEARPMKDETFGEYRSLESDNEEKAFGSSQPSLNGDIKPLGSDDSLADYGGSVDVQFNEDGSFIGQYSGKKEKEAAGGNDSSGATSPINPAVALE

[5] = target: Human L1CAM fibronectin-like type III (FNIII) repeats, residues 606-1116, C-terminal 6x His tag (Homo sapiens, UniProt P32004); assay: BLI
Sequence of Human L1CAM fibronectin-like type III (FNIII) repeats, residues 606-1116, C-terminal 6x His tag (P32004 606-1116): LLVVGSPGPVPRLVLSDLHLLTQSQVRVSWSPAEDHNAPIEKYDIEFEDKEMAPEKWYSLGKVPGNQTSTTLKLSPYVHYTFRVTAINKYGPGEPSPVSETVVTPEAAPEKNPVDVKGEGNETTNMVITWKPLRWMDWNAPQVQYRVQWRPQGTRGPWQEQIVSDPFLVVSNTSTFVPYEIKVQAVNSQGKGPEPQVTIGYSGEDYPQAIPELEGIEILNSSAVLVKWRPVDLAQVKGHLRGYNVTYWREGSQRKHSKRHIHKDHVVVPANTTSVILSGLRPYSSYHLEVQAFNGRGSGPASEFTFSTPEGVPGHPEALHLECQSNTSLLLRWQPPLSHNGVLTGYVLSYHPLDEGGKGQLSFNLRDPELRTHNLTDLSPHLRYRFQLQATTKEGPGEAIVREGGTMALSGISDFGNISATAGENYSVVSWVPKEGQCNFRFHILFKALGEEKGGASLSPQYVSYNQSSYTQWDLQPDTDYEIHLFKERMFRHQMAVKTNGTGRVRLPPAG

Sequence of Human L1CAM expressed on transfected HEK293T cells (HEK293T-L1CAM cells) (P32004 20-1257): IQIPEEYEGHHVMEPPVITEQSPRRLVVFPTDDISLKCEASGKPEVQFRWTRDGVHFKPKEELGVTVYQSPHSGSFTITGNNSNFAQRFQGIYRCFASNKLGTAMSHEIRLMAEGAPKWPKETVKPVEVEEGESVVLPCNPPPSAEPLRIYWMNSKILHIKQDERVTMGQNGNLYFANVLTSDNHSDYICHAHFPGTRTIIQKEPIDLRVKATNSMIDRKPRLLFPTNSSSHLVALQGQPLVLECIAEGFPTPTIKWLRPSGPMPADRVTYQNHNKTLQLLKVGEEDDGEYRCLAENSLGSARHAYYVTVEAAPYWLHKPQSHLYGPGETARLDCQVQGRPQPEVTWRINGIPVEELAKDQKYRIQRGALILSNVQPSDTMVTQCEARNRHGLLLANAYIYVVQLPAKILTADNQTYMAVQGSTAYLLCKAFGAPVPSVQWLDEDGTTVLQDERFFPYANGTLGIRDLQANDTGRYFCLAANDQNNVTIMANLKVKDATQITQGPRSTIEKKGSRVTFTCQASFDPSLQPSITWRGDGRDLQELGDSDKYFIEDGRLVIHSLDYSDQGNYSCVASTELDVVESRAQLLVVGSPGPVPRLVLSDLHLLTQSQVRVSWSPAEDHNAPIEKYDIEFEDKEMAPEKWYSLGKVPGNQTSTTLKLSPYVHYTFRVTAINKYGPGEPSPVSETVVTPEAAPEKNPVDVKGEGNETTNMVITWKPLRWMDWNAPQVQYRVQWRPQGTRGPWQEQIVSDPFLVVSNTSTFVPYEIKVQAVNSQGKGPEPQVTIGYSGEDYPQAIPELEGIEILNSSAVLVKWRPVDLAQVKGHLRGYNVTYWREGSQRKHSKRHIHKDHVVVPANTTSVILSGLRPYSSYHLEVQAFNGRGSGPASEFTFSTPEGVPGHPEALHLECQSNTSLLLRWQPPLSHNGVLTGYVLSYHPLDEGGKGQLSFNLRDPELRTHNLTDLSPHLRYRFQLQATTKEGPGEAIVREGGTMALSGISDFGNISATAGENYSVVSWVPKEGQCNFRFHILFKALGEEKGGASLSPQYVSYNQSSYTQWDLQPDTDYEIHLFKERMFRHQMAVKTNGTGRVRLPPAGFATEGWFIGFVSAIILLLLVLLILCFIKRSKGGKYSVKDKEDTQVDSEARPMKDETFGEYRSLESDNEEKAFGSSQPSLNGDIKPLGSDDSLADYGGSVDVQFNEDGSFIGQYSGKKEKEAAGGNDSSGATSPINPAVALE
Sequence of Human L1CAM Ig-like domains, residues 21-605, C-terminal 6x His tag (P32004 21-605): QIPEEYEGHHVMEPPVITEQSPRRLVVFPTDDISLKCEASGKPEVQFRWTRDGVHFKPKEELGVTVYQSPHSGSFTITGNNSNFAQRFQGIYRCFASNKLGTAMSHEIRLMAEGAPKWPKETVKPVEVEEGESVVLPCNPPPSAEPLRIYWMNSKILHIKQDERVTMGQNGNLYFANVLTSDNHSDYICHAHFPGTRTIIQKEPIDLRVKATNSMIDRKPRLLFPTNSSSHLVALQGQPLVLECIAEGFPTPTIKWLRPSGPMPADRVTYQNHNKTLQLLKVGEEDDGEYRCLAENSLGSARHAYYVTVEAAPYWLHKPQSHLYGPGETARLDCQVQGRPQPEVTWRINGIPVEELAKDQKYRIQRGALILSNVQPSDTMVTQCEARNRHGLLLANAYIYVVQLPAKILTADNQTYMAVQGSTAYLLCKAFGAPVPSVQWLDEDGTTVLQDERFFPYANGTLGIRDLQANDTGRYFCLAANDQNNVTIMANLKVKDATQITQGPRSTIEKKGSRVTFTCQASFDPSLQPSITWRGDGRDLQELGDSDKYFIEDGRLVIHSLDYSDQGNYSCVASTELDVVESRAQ

binding result [1]: binds | binding result [2]: binds | binding result [3]: binds | binding result [4]: binds
B1: 14A10 monoclonal antibody to human L1CAM (antibody, V domains shown)
VH: EVQMVESGGGLVQPGGSLRLSCAAPGFIFSSYNMNWVRQAPGKGLEWVSYISSSSSTTYYADSVKGRFTISRDNAKNSLYLQMNSLRDEDTAVYYCASLYSGYDYYYYYGMDVWGQGTTVTVSS
VL: DIVMTQTPLSSPVSLGQPASISCRSSQSLVHSDGNTYLSWLQQRPGQPPRVLIYKISKRFSGVPDRFSGSGAGTDFTLKISRVEAEDVGVYYCMQATQFPFTFGPGTKVDIK

binding result [1]: binds | binding result [5]: binds | binding result [3]: binds
B2: 143G03 monoclonal antibody to human L1CAM (antibody, V domains shown)
VH: QVQLVQSGAEVKKPGSSVKVSCKASGYTFTNYYIHWVRQAPGQGLEWMGKIGPGSGSPYYQGMFKDRVTITADESTSTAYMELSSLRSEDTAVYYCARWLLPFDYWGQGTLVTVSS
VL: EIVLTQSPGTLSLSPGERATLSCRASSSVNYMHWYQQKPGQAPRLLIYATSILASGIPDRFSGSGSGTDYTLTISRLEPEDFAVYYCQQFSSDPLTFGGGTKVEIK

binding result [1]: binds | binding result [2]: binds
B3: 13F04 monoclonal antibody to human L1CAM (antibody, V domains shown)
VH: QVQLQQPGAELVKPGASVKLSCKASGYIFISYWMHWVKQRPGQGLEWIGEINPRNGRTNYNEKFKSKATLTVDKSSSTAYMQLTSLTSEDSAVYYCARGGDYGGSFDYWGQGTTLTVSS
VL: DIVLTQSPASLAVSLGQRATISCRASESVDSYGNSFMHWYQQKPGQPPKLLIYRASNLESGIPARFSGSGSRTDFTLTVNPVEADDVATYYCQQSNEDPWTFGGGTKLEIK
